Consider one substance from PMC6965647.

The stoichiometry N is a count of units in the complex or per binding partner.

The target in the assay is heat shock protein 90 (human (endogenous in brain tissue)) (UniProt P07900). Put plainly: native gel or EMSA; human brain homogenates (AD and ND) on 4–10% native gradient gel at 4 °C, immunoblot.

Substance “heat shock protein 90 (from UniProt P07900 1-732) (natural protein)” displayed a stoichiometry N of 2.
